Reference: patent US20200223910A1 (STERLING IP, published 2020)

Assays:
[1] = biological target: T1, mouse TNC rCd4-His-FBG (rat; mouse, UniProt P05540 209-391; Q80YX1 1883-2110, limits assumed); assay: anti-FLAG capture DELFIA ELISA, scFv supernatant, biotinylated mouse rCd4-His-FBG
T1 construct: domain: domains 3 and 4;domain: FBG; Biotinylated in the capture ELISA; also called Mu TNC; mTNC; not shown: 6His tag
T1 sequence (chain (part 1 of 2), looked up): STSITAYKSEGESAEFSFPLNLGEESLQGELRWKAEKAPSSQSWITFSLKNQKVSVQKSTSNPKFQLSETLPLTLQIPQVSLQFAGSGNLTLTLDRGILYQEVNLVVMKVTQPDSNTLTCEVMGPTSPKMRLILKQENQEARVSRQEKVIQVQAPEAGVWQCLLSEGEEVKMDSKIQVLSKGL
T1 sequence (chain (part 2 of 2), looked up): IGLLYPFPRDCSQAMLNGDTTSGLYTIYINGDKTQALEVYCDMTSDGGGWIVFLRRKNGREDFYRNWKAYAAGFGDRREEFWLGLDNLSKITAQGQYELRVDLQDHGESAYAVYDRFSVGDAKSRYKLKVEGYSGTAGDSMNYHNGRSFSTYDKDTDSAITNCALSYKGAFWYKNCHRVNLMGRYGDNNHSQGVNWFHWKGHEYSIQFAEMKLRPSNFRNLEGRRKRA
Procedure: E. coli clones harbouring scFv pSANG10 expression plasmids were induced in 96-well plates with auto-induction media as described previously (Schofield et al, 2007). E. coli supernatants were harvested for ELISA assays. ELISA used the DELFIA (dissociation enhanced lanthanide fluorescent immunoassay) system with Europium-labelled anti-FLAG antibody (Sigma, Aldrich, UK). Black immunosorb plates (Nunc) were coated overnight with anti-FLAG M2 antibody (Sigma, F3165, 5 μg/ml in PBS, 50 μl per well), in wells blocked by the addition of 2% milk powder, PBS (PBS-M, 300 μl per well). Plates were washed three times with PBS-T (PBS, 0.1% Tween-20) and three times with PBS followed by the addition of a 1:2 dilution of 96-well auto-induction culture supernatants containing expressed scFv in PBS-M (50 μl per well). The plates were incubated for 1 h, washed as above and biotinylated mouse or human rCd4-His-FBG ([…] in PBS-M, 50 μl) added to each well. Plates were incubated for a further 1 h, washed and Strepravidin-Eu added (Perkin Elmer, 1 μg/ml, PBS-M, 50 μl), incubated for 30 min, washed and DELFIA enhancement solution added (50 μl) and plates read on a Perkin Elmer Fusion plate reader (excitation=320 nm, emission 620 nm).

[2] = biological target: T2, human TNC rCd4-His-FBG (rat; human, UniProt P05540 209-391; P24821 1974-2201, limits assumed); assay: HTRF competition, scFv supernatant; competitor d2-labelled B12 IgG
T2 construct: domain: domains 3 and 4;domain: FBG; C-terminal FBG fusion made in HEK293F cells; biotinylated in the ELISA and HTRF assays; also called Hu TNC; hTNC; not shown: 6His tag
T2 sequence (chain (part 1 of 2), looked up): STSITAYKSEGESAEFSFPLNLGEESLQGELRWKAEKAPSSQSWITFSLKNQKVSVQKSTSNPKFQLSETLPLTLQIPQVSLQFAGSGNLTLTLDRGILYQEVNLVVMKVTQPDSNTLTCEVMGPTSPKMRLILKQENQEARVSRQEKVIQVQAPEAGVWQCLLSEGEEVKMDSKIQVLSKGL
T2 sequence (chain (part 2 of 2), looked up): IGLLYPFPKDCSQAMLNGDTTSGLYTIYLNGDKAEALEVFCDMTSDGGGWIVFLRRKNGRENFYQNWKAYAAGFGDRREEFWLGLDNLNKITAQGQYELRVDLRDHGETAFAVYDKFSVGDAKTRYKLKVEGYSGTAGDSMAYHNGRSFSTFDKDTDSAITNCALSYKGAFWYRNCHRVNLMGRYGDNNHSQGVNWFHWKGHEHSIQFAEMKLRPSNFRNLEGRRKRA
Procedure: IgG antibodies were labelled using the d2 labelling kit (CisBio, 62D2DPEA) as directed by the manufacturer. Streptavidin europium cryptate (CisBio, 610SAKLA, Lot#25C) was used at a final concentration of 1.8 ng active moiety (SA) per 20 μl reaction as recommended by the manufacturer. Biotinylated rCd4-His-FBG was prepared using EZ-link Sulfo-NHS-LC-Biotin reagent (Thermo Scientific, 21327) the extent of biotinylation was quantified using biotinylation fluorescence quantitation kit (Thermo Scientific, 46610). Where appropriate, supernatants containing scFv (prepared as described above for ELISA assays) were added to the 384-well assay plate at a final dilution of 1/20 (i.e. ⅕ dilution in assay buffer followed by addition of 5 μl diluted sample to the 20 μl FRET assay). The concentrations of d2-labelled B12 IgG used for screening were 1.25 nM. Unless otherwise stated, biotinylated rCd4-His-FBG (biotin:protein ratio=1.8:1) was present at either 2.2 nM (in assays using the 2A5 IgG antibody) or 1 nM (in experiments using B12 IgG). Samples were incubated for approximately 1 h at room temperature and the FRET signal was determined using a BMG Pherastar instrument: excitation=320 nm; emission=620 nm and 665 nm; integration start time=60 μs; integration time=500 μs; 100 flashes per well. For competition assays containing culture supernatant, biotinylated rCd4-His-FBG antigen was pre-incubated with streptavidin europium cryptate for 45 min prior to addition of reagents to the assay plate. All FRET signals are presented as ΔR, where R =(E665/E620×104) and ΔR =(Rsample-Rbackground fluorescence).
Culture supernatants containing unlabelled scFv clones from affinity selected mutant libraries were tested for inhibition of the interaction between FBG and the fluorophore-labelled parental IgG antibody. […] The parental clones, expressed as scFvs in parallel with the affinity matured clones, were used as benchmarks.

B1: 165_13_D1 scFv (scFv, V domains shown)
VH: QVQLVESGGGLVQPGRSLRLSCAASGFTFDDYAMHWVRQAPGKGLEWVSGISGSGGSTYYADSVKGRFTISRDNAKNSLYLQMNSLRAEDTALYYCAKGTRGEGDTFDIWGQGTMVTVSS
VL: DIQMTQSPASLPTPVGDRVTITCRASQYIQGFLNWYQQKPGKAPKLLIYDASNLETGVPSRFSGSGSGTDFTLTISSLQPEDFATYYCQQSYSTPQTFGQGTKVDIKR
notes: scFv in E. coli supernatant
Question: Which “fold improvement for mouse FBG binding against parent B12” value (from here on “fold improvement for mouse FBG binding”) [1] does the source give for B1 here?
Answer: ≥ 4 fold

B2: 165_13_B3 scFv (scFv, V domains shown)
VH: QVQLVESGGGLVQPGRSLRLSCAASGFTFDDYAMHWVRQAPGKGLEWVSGISGSGGSTYYADSVKGRFTISRDNAKNSLYLQMNSLRAEDTALYYCAKALARGHDTFDIWGQGTMVTVSS
VL: DIQMTQSPASLPTPVGDRVTITCRASQYIQGFLNWYQQKPGKAPKLLIYDASNLETGVPSRFSGSGSGTDFTLTISSLQPEDFATYYCQQSYSTPQTFGQGTKVDIKR
notes: scFv in E. coli supernatant
Question: How did the “% inhibition of HTRF signal” value [2] turn out when B2 was run?
Answer: ≥ 91%

Question: And the “fold improvement for mouse FBG binding” value [1]?
Answer: ≥ 4 fold

B3: 165_13_D4 scFv (scFv, V domains shown)
VH: QVQLVESGGGLVQPGRSLRLSCAASGFTFDDYAMHWVRQAPGKGLEWVSGISGSGGSTYYADSVKGRFTISRDNAKNSLYLQMNSLRAEDTALYYCAKGTVGEGDTFDIWGQGTMVTVSS
VL: DIQMTQSPASLPTPVGDRVTITCRASQYIQGFLNWYQQKPGKAPKLLIYDASNLETGVPSRFSGSGSGTDFTLTISSLQPEDFATYYCQQSYSTPQTFGQGTKVDIKR
notes: scFv in E. coli supernatant
Question: Which “% inhibition of HTRF signal” value [2] does the source give for B3 here?
Answer: ≥ 91%

Question: And the “fold improvement for mouse FBG binding” value [1]?
Answer: ≥ 4 fold

B4: 165_13_A4 scFv (scFv, V domains shown)
VH: QVQLVESGGGLVQPGRSLRLSCAASGFTFDDYAMHWVRQAPGKGLEWVSGISGSGGSTYYADSVKGRFTISRDNAKNSLYLQMNSLRAEDTALYYCAKDKYPVLDTFDIWGQGTMVTVSS
VL: DIQMTQSPASLPTPVGDRVTITCRASQYIQGFLNWYQQKPGKAPKLLIYDASNLETGVPSRFSGSGSGTDFTLTISSLQPEDFATYYCQQSYSTPQTFGQGTKVDIKR
notes: scFv in E. coli supernatant
Question: Which results are given for B4?
Answer: % inhibition of HTRF signal [2]: ≥ 91%; fold improvement for mouse FBG binding against parent B12 [1]: ≥ 4 fold

B5: 165_13_B1 scFv (scFv, V domains shown)
VH: QVQLVESGGGLVQPGRSLRLSCAASGFTFDDYAMHWVRQAPGKGLEWVSGISGSGGSTYYADSVKGRFTISRDNAKNSLYLQMNSLRAEDTALYYCAKVMSSMEDAFDIWGQGTMVTVSS
VL: DIQMTQSPASLPTPVGDRVTITCRASQYIQGFLNWYQQKPGKAPKLLIYDASNLETGVPSRFSGSGSGTDFTLTISSLQPEDFATYYCQQSYSTPQTFGQGTKVDIKR
notes: scFv in E. coli supernatant (pSANG10, FLAG-tagged)
Question: How did the “fold improvement for mouse FBG binding” value [1] turn out when B5 was run?
Answer: ≥ 4 fold

B6: 180_11_F5 scFv (scFv, V domains shown)
VH: QVQLVESGGGLVQPGRSLRLSCAASGFTFDDYAMHWVRQAPGKGLEWVSGISGSGGSTYYADSVKGRFTISRDNAKNSLYLQMNSLRAEDTALYYCAKVMRTGLDTFDIWGQGTMVTVSS
VL: DIQMTQSPASLPTPVGDRVTITCRASQYIQGFLNWYQQKPGKAPKLLIYDASNLETGVPSRFSGSGSGTDFTLTISSLQPEDFATYYCQQSYSTPQTFGQGTKVDIKR
notes: scFv in E. coli supernatant
Question: Which “% inhibition of HTRF signal” value [2] does the source give for B6 here?
Answer: ≥ 91%

Question: What about the “fold improvement for mouse FBG binding” value [1] of the same binder?
Answer: ≥ 4 fold

B7: 165_13_C3 scFv (scFv, V domains shown)
VH: QVQLVESGGGLVQPGRSLRLSCAASGFTFDDYAMHWVRQAPGKGLEWVSGISGSGGSTYYADSVKGRFTISRDNAKNSLYLQMNSLRAEDTALYYCAKSYQSDEDAFDIWGQGTMVTVSS
VL: DIQMTQSPASLPTPVGDRVTITCRASQYIQGFLNWYQQKPGKAPKLLIYDASNLETGVPSRFSGSGSGTDFTLTISSLQPEDFATYYCQQSYSTPQTFGQGTKVDIKR
notes: scFv in E. coli supernatant
Question: With B7 as the binder, how does the “% inhibition of HTRF signal” value [2] read?
Answer: ≥ 91%

Question: What about the “fold improvement for mouse FBG binding” value [1] of the same binder?
Answer: ≥ 4 fold

B8: 165_13_B6 scFv (scFv, V domains shown)
VH: QVQLVESGGGLVQPGRSLRLSCAASGFTFDDYAMHWVRQAPGKGLEWVSGISGSGGSTYYADSVKGRFTISRDNAKNSLYLQMNSLRAEDTALYYCAKGQKGEGDTFDIWGQGTMVTVSS
VL: DIQMTQSPASLPTPVGDRVTITCRASQYIQGFLNWYQQKPGKAPKLLIYDASNLETGVPSRFSGSGSGTDFTLTISSLQPEDFATYYCQQSYSTPQTFGQGTKVDIKR
notes: scFv in E. coli supernatant
Question: Which “fold improvement for mouse FBG binding” value [1] does the source give for B8 here?
Answer: ≥ 4 fold

B9: 165_13_E1 scFv (scFv, V domains shown)
VH: QVQLVESGGGLVQPGRSLRLSCAASGFTFDDYAMHWVRQAPGKGLEWVSGISGSGGSTYYADSVKGRFTISRDNAKNSLYLQMNSLRAEDTALYYCAKDISAVMDVPQTWGQGTMVTVSS
VL: DIQMTQSPASLPTPVGDRVTITCRASQYIQGFLNWYQQKPGKAPKLLIYDASNLETGVPSRFSGSGSGTDFTLTISSLQPEDFATYYCQQSYSTPQTFGQGTKVDIKR
notes: scFv in E. coli supernatant
Question: Which results are given for B9?
Answer: % inhibition of HTRF signal [2]: ≥ 91%; fold improvement for mouse FBG binding against parent B12 [1]: ≥ 4 fold
